{"source": "paper PMC4627068", "about": "(Nucleic Acids Research, 2015)", "key": {"[1]": {"target": "β' subunit of Bacillus subtilis RNAP-σ^A (Bacillus subtilis, UniProt P37871 1-1199)", "sequence (P37871 whole entry)": "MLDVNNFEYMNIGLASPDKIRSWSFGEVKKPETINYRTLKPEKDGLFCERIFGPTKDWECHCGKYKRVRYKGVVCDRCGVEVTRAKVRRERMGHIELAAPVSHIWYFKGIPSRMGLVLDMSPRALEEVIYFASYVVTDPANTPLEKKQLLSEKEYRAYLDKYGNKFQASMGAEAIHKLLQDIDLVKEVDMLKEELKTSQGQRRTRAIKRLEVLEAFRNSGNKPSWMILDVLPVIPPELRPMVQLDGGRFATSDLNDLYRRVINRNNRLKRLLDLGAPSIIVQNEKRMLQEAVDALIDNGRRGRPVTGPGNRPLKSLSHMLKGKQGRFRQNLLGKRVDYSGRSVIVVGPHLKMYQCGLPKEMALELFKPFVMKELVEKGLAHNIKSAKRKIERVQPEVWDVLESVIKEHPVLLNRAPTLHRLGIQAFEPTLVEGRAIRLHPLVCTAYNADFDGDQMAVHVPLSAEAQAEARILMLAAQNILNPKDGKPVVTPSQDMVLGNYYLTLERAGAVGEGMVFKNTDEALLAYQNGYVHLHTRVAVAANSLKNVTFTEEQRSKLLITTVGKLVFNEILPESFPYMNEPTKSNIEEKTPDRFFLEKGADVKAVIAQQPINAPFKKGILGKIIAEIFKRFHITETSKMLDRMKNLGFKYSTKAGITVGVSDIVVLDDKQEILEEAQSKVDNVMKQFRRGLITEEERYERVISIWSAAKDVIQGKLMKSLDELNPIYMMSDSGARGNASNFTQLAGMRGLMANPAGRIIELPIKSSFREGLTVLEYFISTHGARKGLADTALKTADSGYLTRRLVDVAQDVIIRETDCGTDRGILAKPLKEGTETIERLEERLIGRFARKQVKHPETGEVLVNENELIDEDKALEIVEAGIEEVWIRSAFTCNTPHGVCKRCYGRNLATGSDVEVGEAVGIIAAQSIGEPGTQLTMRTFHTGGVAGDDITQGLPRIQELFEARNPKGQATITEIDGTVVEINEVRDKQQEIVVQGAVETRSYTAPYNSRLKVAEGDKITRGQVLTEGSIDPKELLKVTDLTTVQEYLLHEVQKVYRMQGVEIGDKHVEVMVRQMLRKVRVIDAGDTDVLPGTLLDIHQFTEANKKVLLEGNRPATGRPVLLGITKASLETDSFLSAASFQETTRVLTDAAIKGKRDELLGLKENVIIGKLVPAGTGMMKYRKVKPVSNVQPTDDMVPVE", "test": "far-Western, overlay or dot blot"}, "[2]": {"target": "the molecule itself", "test": "far-Western, overlay or dot blot"}}}
{"binder": "ω2 (homodimeric form of the plasmid pSM19035 ω protein) (natural protein, Streptococcus pyogenes, UniProt Q57468 1-71, looked up) MIVGNLGAQKAKRNDTPISAKKDIMGDKTVRVRADLHHIIKIETAKNGGNVKEVMDQALEEYIRKYLPDKL", "values": [{"measurement": "binding result", "setting": "[1]", "result": "binds"}, {"measurement": "binding result", "setting": "[2]", "result": "binds"}]}
